We go through one molecule from article PMC12297555.

The target in the series is T1, ScoC (Geobacillus kaustophilus strain T-1, UniProt Q5L293 1-201).
T1 sequence: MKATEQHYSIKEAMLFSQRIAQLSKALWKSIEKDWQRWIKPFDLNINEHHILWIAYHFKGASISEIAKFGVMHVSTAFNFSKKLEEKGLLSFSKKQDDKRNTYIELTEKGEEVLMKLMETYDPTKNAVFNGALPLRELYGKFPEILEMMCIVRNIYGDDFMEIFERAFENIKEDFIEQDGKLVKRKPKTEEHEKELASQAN
The series is described as follows: X-ray crystallography.

B1: Oligo 4, 23-bp symmetric palindromic dsDNA (dsDNA)
DNA 1: AATATTATTAACAAAATAATATT
DNA 2: AATATTATTTTGTTAATAATATT
For B1, the binding result was “binds”.
